As usually defined, the Kd is a measure of binding affinity in units of concentration. Read a low Kd as tighter binding.

Among the data in patent publication US20130171152A1 (published 2013) are Kd values, retold here.

Test [1] addresses Homo sapiens MUC16 (GenBank NP-078966).
Test [2] has the same target. The source holds these as a separate data set.

Where two headings read alike, the source gives them in different places.

B1: 4A5.37 (antibody, V domains shown)
VH: VKLEESGGGFVKPGGSLKISCAASGFTFRNYAMSWVRLSPEMRLEWVATISSAGGYIFYSDSVQGRFTISRDNAKNTLHLQMGSLRSGDTAMYYCARQGFGNYGDYYAMDYWGQGTTVTVSS
VL: DIELTQSPSSLAVSAGEKVTMSCKSSQSLLNSRTRKNQLAWYQQKTGQSPELLIYWASTRQSGVPDRFTGSGSGTDFTLTISSVQAEDLAVYYCQQSYNLLTFGPGTKLEIKR
B1 came in with a Kd in test [1] of 7.3 nM.

B2: 4H11.2.5 (antibody, V domains shown)
VH: VKLQESGGGFVKPGGSLKVSCAASGFTFSSYAMSWVRLSPEMRLEWVATISSAGGYIFYSDSVQGRFTISRDNAKNTLHLQMGSLRSGDTAMYYCARQGFGNYGDYYAMDYWGQGTTVTVSS
VL: DIELTQSPSSLAVSAGEKVTMSCKSSQSLLNSRTRKNQLAWYQQKPGQSPELLIYWASTRQSGVPDRFTGSGSGTDFTLTISSVQAEDLAVYYCQQSYNLLTFGPGTKLEVKR
B2 yielded a Kd in test [2] of 6.8 nM.
